Laboratory results as given in patent US20060105407.

Columns and labels:
leptin-dimer kemptide = leptin-dimer kemptide (UniProt P41159)
[1] = target: T1, malic enzyme-monomer kemptide (UniProt P26616)
T1 sequence: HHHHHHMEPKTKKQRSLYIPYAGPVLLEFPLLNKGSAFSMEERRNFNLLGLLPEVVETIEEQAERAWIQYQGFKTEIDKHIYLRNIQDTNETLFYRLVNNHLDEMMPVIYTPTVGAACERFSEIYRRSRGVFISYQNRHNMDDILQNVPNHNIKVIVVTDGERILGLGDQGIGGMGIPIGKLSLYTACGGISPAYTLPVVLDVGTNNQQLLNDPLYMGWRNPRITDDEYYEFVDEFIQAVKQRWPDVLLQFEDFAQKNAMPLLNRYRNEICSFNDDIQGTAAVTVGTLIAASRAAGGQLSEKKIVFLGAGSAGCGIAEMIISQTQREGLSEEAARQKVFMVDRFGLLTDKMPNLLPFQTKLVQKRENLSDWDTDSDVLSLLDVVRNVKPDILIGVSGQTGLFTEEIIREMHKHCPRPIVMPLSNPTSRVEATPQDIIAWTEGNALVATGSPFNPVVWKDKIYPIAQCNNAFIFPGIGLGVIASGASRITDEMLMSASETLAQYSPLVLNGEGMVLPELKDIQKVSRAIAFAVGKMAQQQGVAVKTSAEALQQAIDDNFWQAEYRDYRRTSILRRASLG

leptin-dimer Ab1 = leptin-dimer Ab1 (UniProt P41159)
leptin-monomer Ab1 = leptin-monomer Ab1 (UniProt P41159)
Sequence of leptin-monomer Ab1 (P41159 other isoform, or with tags, fused parts or gaps): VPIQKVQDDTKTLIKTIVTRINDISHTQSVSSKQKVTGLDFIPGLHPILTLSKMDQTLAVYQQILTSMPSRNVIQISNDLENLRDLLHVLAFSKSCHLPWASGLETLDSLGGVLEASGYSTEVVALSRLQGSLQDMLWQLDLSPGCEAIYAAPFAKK

Sequence of leptin-dimer kemptide (P41159 other isoform, or with tags, fused parts or gaps): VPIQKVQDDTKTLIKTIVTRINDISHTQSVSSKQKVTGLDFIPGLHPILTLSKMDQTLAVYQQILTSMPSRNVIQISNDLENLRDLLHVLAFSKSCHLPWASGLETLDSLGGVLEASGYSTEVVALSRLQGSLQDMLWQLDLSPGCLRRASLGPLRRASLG
Sequence of leptin-dimer Ab1 (P41159 other isoform, or with tags, fused parts or gaps): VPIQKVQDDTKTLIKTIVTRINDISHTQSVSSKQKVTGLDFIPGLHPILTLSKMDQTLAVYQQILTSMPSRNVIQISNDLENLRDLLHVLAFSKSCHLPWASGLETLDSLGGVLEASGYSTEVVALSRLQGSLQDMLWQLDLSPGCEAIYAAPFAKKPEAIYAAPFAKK

In the case of protein kinase A, the “fluorometric analysis of phosphorylation on protein chip, 10-fold diluted spots” value (leptin-dimer kemptide) is reported as “In a diluted state as shown by 2 and 4, the dimer showed a higher reactivity than the monomer” and the “fluorometric analysis of phosphorylation on protein chip (Cy3-labeled anti-phosphorylation serine antibody)” value [1] is reported as “the protein kinase A showed a specific interaction with the kemptide of a form fused with the leptin or malic enzyme”.

Ab1 kinase was tested, and the “fluorometric analysis of phosphorylation on protein chip (Cy5-labeled anti-phosphorylation tyrosine antibody)” value (leptin-dimer Ab1) was “the Ab1 kinase showed a specific interaction with the Ab1 monomer and dimer fused with leptin” and the “fluorometric analysis of phosphorylation on protein chip (Cy5-labeled anti-phosphorylation tyrosine antibody)” value (leptin-monomer Ab1) was “the Ab1 kinase showed a specific interaction with the Ab1 monomer and dimer fused with leptin”.
